Results reported in US20210206811A1.

Biological target: retromer endogenous in HeLa cells (detected through its subunit Vps35) (UniProt Q96QK1)
Assay: cell-based or functional assay

Sequence of retromer endogenous in HeLa cells (detected through its subunit Vps35) (O75436 whole entry): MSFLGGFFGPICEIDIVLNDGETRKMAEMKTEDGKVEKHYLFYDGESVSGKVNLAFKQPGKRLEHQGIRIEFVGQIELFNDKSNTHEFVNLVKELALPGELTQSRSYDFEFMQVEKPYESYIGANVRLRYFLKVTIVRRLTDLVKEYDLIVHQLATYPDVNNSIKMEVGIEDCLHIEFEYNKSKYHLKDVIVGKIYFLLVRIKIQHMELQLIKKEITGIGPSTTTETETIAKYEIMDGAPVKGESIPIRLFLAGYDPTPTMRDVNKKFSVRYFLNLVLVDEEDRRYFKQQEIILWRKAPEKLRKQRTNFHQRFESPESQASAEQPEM

3R mutant HPV16 pseudovirus (L2 with three arginines in place of RKRRKR) (from UniProt P03101 1-505)
Vps35/L1 PLA signal: 75 % reduction
